We go through three molecules from paper PMC3416868, “The Fission Yeast GATA Factor, Gaf1, Modulates Sexual Development via Direct Down-Regulation of ste11+ Expression in Response to Nitrogen Starvation”.

Data set [1] has as its target T1, GST-Gaf1 (Schizosaccharomyces pombe (972?)) (UniProt Q10280).
T1 sequence: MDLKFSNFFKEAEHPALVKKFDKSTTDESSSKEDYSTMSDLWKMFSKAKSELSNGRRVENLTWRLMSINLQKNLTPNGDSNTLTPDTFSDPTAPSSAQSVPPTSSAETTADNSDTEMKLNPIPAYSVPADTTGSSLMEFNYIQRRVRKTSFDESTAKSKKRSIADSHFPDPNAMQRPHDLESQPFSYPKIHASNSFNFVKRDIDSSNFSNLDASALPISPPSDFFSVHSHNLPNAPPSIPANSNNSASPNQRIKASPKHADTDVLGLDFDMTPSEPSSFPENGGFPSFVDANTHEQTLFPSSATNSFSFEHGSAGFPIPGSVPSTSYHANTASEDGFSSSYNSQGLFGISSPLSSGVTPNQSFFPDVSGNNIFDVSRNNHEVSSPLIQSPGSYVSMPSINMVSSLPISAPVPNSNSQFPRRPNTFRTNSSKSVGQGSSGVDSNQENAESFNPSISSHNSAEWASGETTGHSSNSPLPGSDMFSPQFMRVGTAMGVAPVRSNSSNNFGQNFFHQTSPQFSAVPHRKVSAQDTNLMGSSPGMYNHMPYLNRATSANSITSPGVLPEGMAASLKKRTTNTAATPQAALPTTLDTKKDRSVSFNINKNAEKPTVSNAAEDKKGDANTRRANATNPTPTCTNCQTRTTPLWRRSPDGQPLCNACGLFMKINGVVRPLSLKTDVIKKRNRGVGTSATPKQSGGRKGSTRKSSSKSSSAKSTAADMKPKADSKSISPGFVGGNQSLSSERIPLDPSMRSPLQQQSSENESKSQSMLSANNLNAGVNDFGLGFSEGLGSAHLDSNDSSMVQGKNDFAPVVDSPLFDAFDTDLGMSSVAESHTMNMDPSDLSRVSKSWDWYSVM
Kind of data set: competition. The settings on record: 10 mM Tris pH 7.5, 2 mM MgCl2, 50 mM NaCl, 1 mM DTT, 5% glycerol, 2 ug poly(dI-dC) in 20 ul, room temperature, 20 min; 6% native PAGE.

The target of data set [2] is T2, GST-Gaf1 (Schizosaccharomyces pombe, UniProt Q10280 1-855).
T2 sequence: T1 sequence
Kind of data set: competition; cold PW, 100-fold, against labeled PA; 10 mM Tris pH 7.5, 2 mM MgCl2, 50 mM NaCl, 1 mM DTT, 5% glycerol, 2 ug poly(dI-dC) in 20 ul, room temperature, 20 min; 6% native PAGE. The settings on record: protein: recombinant; tags: N-terminal GST (pGEX4T3); label: 32P 5'-end (probe); blunt.

Data set [3] addresses T2, GST-Gaf1. Kind of data set: competition; cold PM, 100-fold, against labeled PA; 10 mM Tris pH 7.5, 2 mM MgCl2, 50 mM NaCl, 1 mM DTT, 5% glycerol, 2 ug poly(dI-dC) in 20 ul, room temperature, 20 min; 6% native PAGE. The settings on record: protein: recombinant; tags: N-terminal GST (pGEX4T3); label: 32P 5'-end (probe).

Changes are numbered by the printed parent chain.

With “GGATATCCTTTTAATATATGCTAAATGAATAGATTCTCACTATGTAAGTCACCAGGTATGTATGTATATATATATATATATACATACGCATTGGCAACCAACTAGTAAGAGTATAGAGCGAGGCGTAATACGCGATGTTACTGACAATGAAAATCAAACAAAGAAATTCAACTTTTTTAAGTCTAGCCAAAATGTGTATGAGGGGAAGGGACAAAATTCACAGGGGTTAAAGTAACATATG (double strand) [PB]”, the binding result in data set [1] is on record as “no binding”.

B1: PW (dsDNA)
DNA 1: CATTTTGCCTTGCGCTATCTCCCTCAACGAAAAG
DNA 2: CTTTTCGTTGAGGGAGATAGCGCAAGGCAAAATG
As for B1, the binding result in the data set with GST-Gaf1 [2] is recorded as “binds”.

B2: PM (dsDNA)
DNA 1: B1 DNA 1 with T16A, A17T, C19G
DNA 2: B1 DNA 2 with G16C, T18A, A19T
As to B2, the binding result with GST-Gaf1 [3] is listed as “no binding”.
